Target: T1, Nt^17 peptide, the seventeen-residue N-terminal region of huntingtin (htt)
T1 chain: MATLEKLMKAFESLKSF
Test: native MS
Settings: remark: other sources report otherwise

- normalized collision energy for 50% signal decay of the complex: 20 NCE
- stoichiometry N: 4
Binder: MATLEKLMKAFESLKSF [Nt^17 peptide, the seventeen-residue N-terminal region of huntingtin (htt)]
